The values below are quoted from earlier work in paper PMC12757075.

This series concerns the target actin filament barbed end (Oryctolagus cuniculus) (UniProt P68135).

In general, Kd refers to a measure of binding affinity in units of concentration. Regarding VASP (from UniProt P50552), the Kd was 9.2 nM.
